Experimental data: publication PMC4894983
pKd: −log10 of the molar value.

These substances were tested against T1, CsrA-Strep (Campylobacter jejuni NCTC11168) (UniProt Q0P9F1) (assay: EMSA).
T1 sequence: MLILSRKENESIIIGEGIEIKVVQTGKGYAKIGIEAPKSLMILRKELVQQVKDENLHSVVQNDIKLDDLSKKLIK

Substance	binding
GGAAAUUAAAAUUUUAAAAAGGAAGUUAAAAUGUCAAAACCAUUAAAUGAAGAGAUUUUUGUUGAAUUUAAAAGUGAUCUAGCUGAAAGAAAAAAUGAAGUUUUGCUUCAAGUUUUAGA [Cj0040 mRNA]	binds
GGAUUAUAACUAAGAUCAAGGAGGCAGAAAUGAUCAAUCCUAUACAACAAAGUUAUGUGGCAAAUACCGCAUUAAAUACAAAUAGAAUAGAUAAAG [flgM mRNA]	binds

What follows are substances tested on CsrA-Strep (Campylobacter jejuni NCTC11168) (assay: EMSA).

Substance	pKd
flaA WT leader	7.30
flaB leader	< 6.46
flaG leader	< 6.46
flgI leader	< 6.46
